The target of assay [1] is T1, rat amylin receptor (rat calcitonin receptor + rat RAMP 3) (rat, UniProt P32214 25-516; Q9JJ73 23-147).
T1 construct: whole, on cells; Membranes of BHK tk'ts 13 cells transiently transfected with the rat calcitonin receptor and rat RAMP 3; also called rAmylin-R; rat amylin 3(a) receptor
T1 sequence (looked up) 1: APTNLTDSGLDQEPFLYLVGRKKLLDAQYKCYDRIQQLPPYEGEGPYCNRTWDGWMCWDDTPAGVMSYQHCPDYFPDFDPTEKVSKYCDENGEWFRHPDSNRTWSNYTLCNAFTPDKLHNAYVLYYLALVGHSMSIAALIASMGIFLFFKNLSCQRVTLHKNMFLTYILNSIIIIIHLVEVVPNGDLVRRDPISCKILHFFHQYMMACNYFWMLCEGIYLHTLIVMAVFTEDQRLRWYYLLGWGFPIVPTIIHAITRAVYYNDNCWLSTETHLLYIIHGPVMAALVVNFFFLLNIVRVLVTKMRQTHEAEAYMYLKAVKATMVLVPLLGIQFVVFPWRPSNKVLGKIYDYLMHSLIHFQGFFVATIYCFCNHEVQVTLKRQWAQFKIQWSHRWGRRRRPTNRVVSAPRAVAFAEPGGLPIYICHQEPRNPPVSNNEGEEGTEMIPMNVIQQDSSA
T1 sequence (looked up) 2: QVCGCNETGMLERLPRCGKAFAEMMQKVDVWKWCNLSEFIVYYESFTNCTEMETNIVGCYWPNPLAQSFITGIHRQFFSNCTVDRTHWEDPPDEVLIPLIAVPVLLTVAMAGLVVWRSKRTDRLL
Briefly: SPA competition vs 125I-rat amylin, membranes with rat CTR + rat RAMP3 (Assay VI). As for the experimental part: The binding assay was performed using scintillation proximity assay (SPA) beads (RPNQ0001) from PerkinElmer and cell membranes from the Amylin 3(a)/CRE-luc cells (as described in Assay (II)) were used. Membranes were prepared in the following way; the cells were rinsed with PBS and incubated with Versene for approximately 5 min before harvesting. The cells were flushed with PBS and the cell-suspension was centrifuged for 5 min at 1000 rpm. Cells were homogenized (ultrathurrax) in a buffer containing 20 mM Na-HEPES and 10 mM EDTA (pH 7.4) and centrifuged at 20.000 rpm for 15 min. The resulting pellet was resuspended, homogenized and centrifuged (20.000 rpm, 15 min) in a buffer containing 20 mM Na-HEPES and 0.1 mM EDTA (pH 7.4, buffer 2). The resulting pellet was resuspended in buffer 2 and protein concentration was measured (BCA protein Assay, Pierce). The homogenate was kept cold during the whole procedure. The membranes were kept at −80° C. until use. The assay was performed in a 384 well Optiplate (PerkinElmer) in a total volume of 40 ul. Membranes were mixed with SPA beads. Final concentration of membranes 35 ng/μL final and SPA beads was 0.05 mg/well. Test-compounds were dissolved in DMSO and further diluted in assay buffer (50 mM Hepes, pH 7.4, 1 mM CaCl2, 5 mM MgCl₂, 0.1% OA and 0.02% Tween20). […] The final mixture was incubated with shaking at 400 rpm for 120 min at 25° C. prior to centrifugation (1500 rpm, 10 min). Samples were analyzed on TopCounter™ (Packard). The IC₅₀ was calculated using (one site binding competition analysis) GraphPad Prism5 as a measure of receptor affinity.
Cells were grown in DMEM with 10% FBS and 1% Pen/Strep. Approximately 48 hours after transfection, the cells were harvested and membranes were prepared.

Assay [2] addresses T2, rat calcitonin receptor (rat, UniProt P32214 25-516).
T2 construct: whole, on cells; Membranes of BHK tk'ts 13 cells transiently transfected with the rat calcitonin receptor; also called rCTR; rat calcitonin (a) receptor
T2 sequence (looked up): T1 sequence (looked up) 1
Briefly: IC50 at rCTR divided by IC50 at rAmylin-R (reference).

In assay [3] the target is T3, human calcitonin receptor (human, UniProt P30988 25-474).
T3 construct: whole, on cells; Membranes of a BHK tk'ts 13 cell line stably transfected with the human calcitonin receptor; also called hCTR; hCT
T3 sequence (looked up): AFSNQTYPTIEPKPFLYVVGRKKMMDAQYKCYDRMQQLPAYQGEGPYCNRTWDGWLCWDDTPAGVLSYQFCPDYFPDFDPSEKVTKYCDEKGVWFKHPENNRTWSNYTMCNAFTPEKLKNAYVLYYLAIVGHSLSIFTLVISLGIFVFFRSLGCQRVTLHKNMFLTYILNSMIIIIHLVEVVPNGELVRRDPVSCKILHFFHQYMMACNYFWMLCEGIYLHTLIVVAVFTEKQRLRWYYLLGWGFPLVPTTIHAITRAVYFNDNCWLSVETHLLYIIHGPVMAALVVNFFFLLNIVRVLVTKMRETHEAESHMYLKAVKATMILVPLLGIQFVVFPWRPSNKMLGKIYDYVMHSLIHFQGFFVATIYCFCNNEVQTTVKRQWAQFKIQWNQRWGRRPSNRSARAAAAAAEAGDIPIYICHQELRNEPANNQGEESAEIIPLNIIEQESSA
Briefly: IC50 at hCTR divided by IC50 at hAmylin-R (reference). As for the experimental part: The resulting pellet was resuspended, homogenized and centrifuged (20.000 rpm, 15 min) in a buffer containing 20 mM Na-HEPES and 0.1 mM EDTA (pH 7.4, buffer 2). The resulting pellet was resuspended in buffer 2 and protein concentration was measured (BCA protein Assay, Pierce). The homogenate was kept cold during the whole procedure. The membranes were kept at −80° C. until use. The assay was performed in a 384 well Optiplate (PerkinElmer) in a total volume of 40 ul. Membranes were mixed with SPA beads. Final concentration of membranes 35 ng/μL final and SPA beads was 0.05 mg/well. Test-compounds were dissolved in DMSO and further diluted in assay buffer (50 mM Hepes, pH 7.4, 1 mM CaCl2, 5 mM MgCl₂, 0.1% OA and 0.02% Tween20). […] The final mixture was incubated with shaking at 400 rpm for 120 min at 25° C. prior to centrifugation (1500 rpm, 10 min). Samples were analyzed on TopCounter™ (Packard). The IC₅₀ was calculated using (one site binding competition analysis) GraphPad Prism5 as a measure of receptor affinity.
Membranes were prepared in the following way; the cells were rinsed with PBS and incubated with Versene for approximately 5 min before harvesting. The cells were flushed with PBS and the cell-suspension was centrifuged for 5 min at 1000 rpm. Cells were homogenized (Ultrathurrax) in a buffer containing 20 mM Na-HEPES and 10 mM EDTA (pH 7.4) and centrifuged at 20.000 rpm for 15 min. The resulting pellet was resuspended, homogenized and centrifuged (20.000 rpm, 15 min) in a buffer containing 20 mM Na-HEPES and 0.1 mM EDTA (pH 7.4, buffer 2). The resulting pellet was resuspended in buffer 2 and protein concentration was measured (BCA protein Assay, Pierce). The homogenate was kept cold during the whole procedure. The membranes were kept at −80° C. until use. Assay was performed in a 384 well Optiplate (PerkinElmer) in a total volume of 40 ul. Membranes were mixed with SPA beads.

Assay [4] has as its target T2, rat calcitonin receptor. Description: SPA competition vs 125I-calcitonin, membranes with rat CTR (Assay VIII).

Changes are numbered by the printed parent chain. Numbered stars: 1 amine (or outer) side, 2 acyl side, 3 side chain; on linkers, the order of the positions; unused ones are H or OH. Bridge positions count the residues as written; N and C are the ends. * marks the point of attachment. C20 diacid = O=C(O)CCCCCCCCCCCCCCCCCCC(=O)*; γGlu = O=C(O)[C@H](CCC(=O)[*:2])N[*:1]

B1: N^α1-[2-[2-[2-[[2-[2-[2-[[(4S)-4-carboxy-4-(19-carboxynonadecanoylamino)butanoyl]amino]ethoxy]ethoxy]acetyl]amino]ethoxy]ethoxy]acetyl]-[Glu14,Arg17,Pro21,Pro27 … (peptide)
peptide: KCNTATCATQRLAEFLRHSSPNFGAIPSSTNVGSNTY
modifications: C20 diacid-gGlu-2xOEG on the alpha amino group of the N-terminal residue (Lys 1); disulfide bridge Cys2-Cys7; C-terminal amide
notes: modifications are with respect to human amylin; also called compound 19
One may read the IC50 as the midpoint of a concentration-inhibition curve. On to B1, for which the values for the IC50 (in assay [1]; in the assay with rat calcitonin receptor [4]) were 1.02 nM and 95.6 nM, respectively. Also, the “Ratio rCT/rAmylin binding” value in the assay with rat calcitonin receptor [2] is 93.6. In assay [3], the “Ratio hCT/hAmylin binding” value came out at 36.7.

B2: N^α1-[(4S)-4-carboxy-4-(19-carboxynonadecanoylamino)butanoyl]-[Arg17,Pro21,Pro27,Lys35]-h-amylin (peptide)
peptide: B1 peptide with E14N, N35K
modifications: C20 diacid-gGlu on the alpha amino group of the N-terminal residue (Lys 1); disulfide bridge Cys2-Cys7; C-terminal amide
notes: modifications are with respect to human amylin; also called compound 34
Turning to B2, the IC50 in assay [1] came out at 1.72 nM; with rat calcitonin receptor [4], 89.2 nM. The “Ratio rCT/rAmylin binding” value with rat calcitonin receptor [2] stood at 52. In assay [3], the “Ratio hCT/hAmylin binding” value came out at 64.4.

B3: N^α1-[(4S)-4-carboxy-4-(19-carboxynonadecanoylamino)butanoyl]-[Arg17,Pro21,Pro27,His34]-h-amylin (peptide)
peptide: B1 peptide with E14N, S34H
modifications: C20 diacid-gGlu on the alpha amino group of the N-terminal residue (Lys 1); disulfide bridge Cys2-Cys7; C-terminal amide
notes: modifications are with respect to human amylin; also called compound 40
On to B3, for which the IC50 in assay [1] amounted to 1.5 nM; with rat calcitonin receptor [4], 69.2 nM. Moreover, in the assay with rat calcitonin receptor [2], the “Ratio rCT/rAmylin binding” value is 46.2. For the same molecule, the “Ratio hCT/hAmylin binding” value in assay [3] stood at 31.1.

B4: N^α1-[(4S)-4-carboxy-4-(19-carboxynonadecanoylamino)butanoyl]-[Arg17,Pro21,Pro27,Pro34,Glu35]-h-amylin (peptide)
peptide: {C20 diacid-γGlu}-KCNTATCATQRLANFLRHSSPNFGAIPSSTNVGPETY-NH2
modifications: disulfide 2-7
SMILES: CC[C@H](C)[C@H](NC(=O)[C@H](C)NC(=O)CNC(=O)[C@H](Cc1ccccc1)NC(=O)[C@H](CC(N)=O)NC(=O)[C@@H]1CCCN1C(=O)[C@H](CO)NC(=O)[C@H](CO)NC(=O)[C@H](Cc1c[nH]cn1)NC(=O)[C@H](CCCNC(=N)N)NC(=O)[C@H](CC(C)C)NC(=O)[C@H](Cc1ccccc1)NC(=O)[C@H](CC(N)=O)NC(=O)[C@H](C)NC(=O)[C@H](CC(C)C)NC(=O)[C@H](CCCNC(=N)N)NC(=O)[C@H](CCC(N)=O)NC(=O)[C@@H](NC(=O)[C@H](C)NC(=O)[C@@H]1CSSC[C@H](NC(=O)[C@H](CCCCN)NC(=O)CC[C@H](NC(=O)CCCCCCCCCCCCCCCCCCC(=O)O)C(=O)O)C(=O)N[C@@H](CC(N)=O)C(=O)N[C@@H]([C@@H](C)O)C(=O)N[C@@H](C)C(=O)N[C@@H]([C@@H](C)O)C(=O)N1)[C@@H](C)O)C(=O)N1CCC[C@H]1C(=O)N[C@@H](CO)C(=O)N[C@@H](CO)C(=O)N[C@H](C(=O)N[C@@H](CC(N)=O)C(=O)N[C@H](C(=O)NCC(=O)N1CCC[C@H]1C(=O)N[C@@H](CCC(=O)O)C(=O)N[C@H](C(=O)N[C@@H](Cc1ccc(O)cc1)C(N)=O)[C@@H](C)O)C(C)C)[C@@H](C)O
notes: modifications are with respect to human amylin; also called compound 29
In the case of B4, the values for the IC50 (in assay [1]; with rat calcitonin receptor [4]) were 0.322 nM and 21.6 nM, respectively. In the assay with rat calcitonin receptor [2], the “Ratio rCT/rAmylin binding” value turned out to be 67. Also, in assay [3], the “Ratio hCT/hAmylin binding” value is 13.9.

B5: N^α1-[(4S)-4-carboxy-4-(19-carboxynonadecanoylamino)butanoyl]-[Arg17,Pro21,Pro27,Arg34]-h-amylin (peptide)
peptide: B1 peptide with E14N, S34R
modifications: C20 diacid-gGlu on the alpha amino group of the N-terminal residue (Lys 1); disulfide bridge Cys2-Cys7; C-terminal amide
notes: modifications are with respect to human amylin; also called compound 39
For the molecule B5, the IC50 was determined as 1.77 nM in assay [1] and 96.4 nM with rat calcitonin receptor [4]. In the assay with rat calcitonin receptor [2], the “Ratio rCT/rAmylin binding” value was determined as 54.5. The “Ratio hCT/hAmylin binding” value in assay [3] is 29.

B6: N^α1-[(4S)-4-carboxy-4-(19-carboxynonadecanoylamino)butanoyl]-[Arg17,Pro21,Pro27,Pro31,Glu35]-h-amylin (peptide)
peptide: {C20 diacid-γGlu}-KCNTATCATQRLANFLRHSSPNFGAIPSSTPVGSETY-NH2
modifications: disulfide 2-7
SMILES: CC[C@H](C)[C@H](NC(=O)[C@H](C)NC(=O)CNC(=O)[C@H](Cc1ccccc1)NC(=O)[C@H](CC(N)=O)NC(=O)[C@@H]1CCCN1C(=O)[C@H](CO)NC(=O)[C@H](CO)NC(=O)[C@H](Cc1c[nH]cn1)NC(=O)[C@H](CCCNC(=N)N)NC(=O)[C@H](CC(C)C)NC(=O)[C@H](Cc1ccccc1)NC(=O)[C@H](CC(N)=O)NC(=O)[C@H](C)NC(=O)[C@H](CC(C)C)NC(=O)[C@H](CCCNC(=N)N)NC(=O)[C@H](CCC(N)=O)NC(=O)[C@@H](NC(=O)[C@H](C)NC(=O)[C@@H]1CSSC[C@H](NC(=O)[C@H](CCCCN)NC(=O)CC[C@H](NC(=O)CCCCCCCCCCCCCCCCCCC(=O)O)C(=O)O)C(=O)N[C@@H](CC(N)=O)C(=O)N[C@@H]([C@@H](C)O)C(=O)N[C@@H](C)C(=O)N[C@@H]([C@@H](C)O)C(=O)N1)[C@@H](C)O)C(=O)N1CCC[C@H]1C(=O)N[C@@H](CO)C(=O)N[C@@H](CO)C(=O)N[C@H](C(=O)N1CCC[C@H]1C(=O)N[C@H](C(=O)NCC(=O)N[C@@H](CO)C(=O)N[C@@H](CCC(=O)O)C(=O)N[C@H](C(=O)N[C@@H](Cc1ccc(O)cc1)C(N)=O)[C@@H](C)O)C(C)C)[C@@H](C)O
notes: modifications are with respect to human amylin; also called compound 28
Turning to B6, the IC50 was 1.22 nM in assay [1] and 54.9 nM with rat calcitonin receptor [4]. In addition, in the assay with rat calcitonin receptor [2], the “Ratio rCT/rAmylin binding” value is 44.9. The “Ratio hCT/hAmylin binding” value in assay [3] came out at 20.5.

B7: N^α1-[(4S)-4-carboxy-4-(19-carboxynonadecanoylamino)butanoyl]-[Arg17,Pro21,Pro27,Glu35]-h-amylin (peptide)
peptide: B1 peptide with E14N, N35E
modifications: C20 diacid-gGlu on the alpha amino group of the N-terminal residue (Lys 1); disulfide bridge Cys2-Cys7; C-terminal amide
notes: modifications are with respect to human amylin; also called compound 23
With B7, the values for the IC50 (in assay [1]; with rat calcitonin receptor [4]) were 1.12 nM and 79.9 nM, respectively. Also, the “Ratio rCT/rAmylin binding” value with rat calcitonin receptor [2] came out at 71.3. Besides, the “Ratio hCT/hAmylin binding” value in assay [3] was 25.
